Earlier results on 3 substances are cited in article PMC5576430.

The target in data set [1] is p300 CH1 (Homo sapiens) (UniProt Q09472).
The target is the same in data set [2]. In words: tryptophan fluorescence.
Data set [3] deals with HIF-1α (Homo sapiens) (UniProt Q16665).

Like-named read-outs stand apart in the source and are kept apart here.

UniProt Q09472, sequence (Q09472 331-417): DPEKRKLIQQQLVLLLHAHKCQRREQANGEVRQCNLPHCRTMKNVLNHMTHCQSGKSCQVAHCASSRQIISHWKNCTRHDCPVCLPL

For orientation: Kd means the free concentration of one partner at which half of the binding sites on the other are occupied at equilibrium, for simple one-to-one binding. For the substance HIF-1α C-TAD helix 2 peptide, the Kd in data set [1] is 825 nM.

“HIF-1α helix 3 unconstrained peptide helix 3 (from UniProt Q16665)”: in data set [2], the Kd is 6060 nM.

With cyclo-CLLFVY, the Kd in data set [3] was 124 nM.
